Measured values taken from US20180230220A1 (Amgen, published 2018).
One block for each binder: values may come before it.

Columns and labels:
Assay in all cases: cell-based or functional assay
FOLR1 [1] = target: T1, FOLR1 (human, UniProt P15328 25-234)
FOLR1 [2] = target: T1, FOLR1; remark: listed apart in the source
HER2 [3] = target: T2, HER2 (human, UniProt P04626 23-1255)
HER2 [4] = target: T2, HER2; remark: listed apart in the source

T1 sequence (P15328 25-234): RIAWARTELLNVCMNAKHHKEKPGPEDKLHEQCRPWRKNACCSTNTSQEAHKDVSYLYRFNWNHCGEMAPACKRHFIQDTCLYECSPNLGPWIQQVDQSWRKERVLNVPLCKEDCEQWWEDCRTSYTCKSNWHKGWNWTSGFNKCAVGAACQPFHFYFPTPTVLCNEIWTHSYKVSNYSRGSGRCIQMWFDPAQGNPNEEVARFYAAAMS

EC50 (pM), T cell-dependent cell cytolysis (TDCC), Cal-51 cells (FOLR1 [1]): 1.27 pM
EC50 (pM), T cell-dependent cell cytolysis (TDCC), T47D cells (FOLR1 [1]): 1.35 pM
EC50 (pM) for eliciting IFN-γ secretion by T cells, T47D cells (FOLR1 [2]): 48.6 pM
EC50 (pM) for eliciting IL-2 secretion by T cells, T47D cells (FOLR1 [2]): 67.3 pM
EC50 (pM) for eliciting IL-10 secretion by T cells, T47D cells (FOLR1 [2]): 110 pM
EC50 (pM) for eliciting IL-13 secretion by T cells, T47D cells (FOLR1 [2]): 127 pM
EC50 (pM) for eliciting TNF-α secretion by T cells, T47D cells (FOLR1 [2]): 41.2 pM
B1: anti-FOLR1/CD3 Bi-Fc (bispecific antibody)
chain 1: not shown
chain 2: HMSSVSAQAAAEPKSSDKTHTCPPCPAPEAAGGPSVFLFPPKPKDTLMISRTPEVTCVVVDVSHEDPEVKFNWYVDGVEVHNAKTKPREEQYNSTYRVVSVLTVLHQDWLNGKEYKCKVSNKALPAPIEKTISKAKGQPREPQVYTLPPSREEMTKNQVSLTCLVKGFYPSDIAVEWESNGQPENNYDTTPPVLDSDGSFFLYSDLTVDKSRWQQGNVFSCSVMHEALHNHYTQKSLSLSPGK

EC50 (pM), T cell-dependent cell cytolysis (TDCC), JIMT-1 cells (HER2 [3]): 11.5 pM
EC50 (pM), T cell-dependent cell cytolysis (TDCC), T47D cells (HER2 [3]): 1.03 pM
EC50 (pM) for eliciting IFN-γ secretion by T cells, JIMT-1 cells (HER2 [4]): 32.9 pM
EC50 (pM) for eliciting IL-2 secretion by T cells, JIMT-1 cells (HER2 [4]): 22.3 pM
EC50 (pM) for eliciting IL-10 secretion by T cells, JIMT-1 cells (HER2 [4]): 9.6 pM
EC50 (pM) for eliciting IL-13 secretion by T cells, JIMT-1 cells (HER2 [4]): 16.4 pM
EC50 (pM) for eliciting TNF-α secretion by T cells, JIMT-1 cells (HER2 [4]): 19.5 pM
B2: anti-HER2/CD3 Bi-Fc (bispecific antibody)
chain 1: not shown
chain 2: B1 chain 2
